For the assay, the target named is T1, ULBP6 (NKG2D natural ligand) (Homo sapiens (Human), UniProt Q5VY80 26-218).
T1 sequence: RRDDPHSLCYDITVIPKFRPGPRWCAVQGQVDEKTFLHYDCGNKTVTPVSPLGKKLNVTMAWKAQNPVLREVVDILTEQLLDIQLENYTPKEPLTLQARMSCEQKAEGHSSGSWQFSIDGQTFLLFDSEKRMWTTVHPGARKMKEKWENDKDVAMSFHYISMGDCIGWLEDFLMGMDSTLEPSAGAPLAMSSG
The assay is described as follows: SPR, injection over captured mouse Fc-human NKG2D, 25 C. The text has this: Briefly, mouse Fc-human NKG2D was captured using an anti-mouse Fc antibody immobilized on a CM5 chip at a density of approximately 100 RU. […] Biacore 8K evaluation software was used for all data analysis.
(In SPR one partner is held on a chip, and binding of the other changes the refractive index at the surface.)

B1: soluble mouse Fc-human NKG2D dimer (Fc fusion, UniProt P26718 73-216, looked up)
chain: IWSAVFLNSLFNQEVQIPLTESYCGPCPKNWICYKNNCYQFFDESKNWYESQASCMSQNASLLKVYSKEDQDLLKLVKSYHWMGLVHIPTNGSWQWEDGSILSPNLLTIIEMQKGDCALYASSFKGYIENCSTPNTYICMQRTV
notes: also called mFc-hNKG2D; fusion protein of human NKG2D and murine Fc; not shown: murine Fc
B1: the binding result is given as “binds”.

The values above are taken from patent US20250019444A1 (published 2025).
